According to the Immune Epitope Database (IEDB):

Legend:
Assay in all cases: IEDB peptide-MHC binding, purified MHC/competitive/radioactivity; filed as Kd, often an IC50 or EC50 that approximates it; ≥ and ≤ were set here for values at or beyond the usual limits of such assays
[1] = target: HLA-A*33:01
[2] = target: HLA-A*11:01
[3] = target: HLA-A*03:01
[4] = target: HLA-A*68:01
[5] = target: HLA-A*31:01
[6] = source organism: Vaccinia virus WR
[7] = source organism: Dengue virus 2 Jamaica/1409/1983
[8] = source organism: Mammarenavirus whitewaterense
[9] = source organism: Dengue virus 4 Philippines/H241/1956
[10] = source organism: Dengue virus 1 Brazil/97-11/1997
[11] = source organism: Mammarenavirus machupoense
[12] = source organism: SARS coronavirus Tor2
[13] = source organism: Dengue virus 3 Martinique/1243/1999
[14] = source organism: Vaccinia virus Copenhagen
[15] = source organism: Mammarenavirus guanaritoense

Sequence	Kd [1, 6] [nM]	Kd [2, 6] [nM]	Kd [3, 6] [nM]	Kd [4, 6] [nM]	Kd [5, 6] [nM]	further results
DITFLRPVLK	5840	72.1	157	42.3	259	
FTTNIWLKLR						Kd [1, 7]: 68.3 nM; Kd [4, 7]: 28.6 nM
ATYLGPQFCK						Kd ([2]; source organism: Mammarenavirus lassaense): 3.25 nM
QKCGELLEFH						Kd [1, 8]: ≥ 70000 nM; Kd [2, 8]: ≥ 69700 nM; Kd [3, 8]: ≥ 70000 nM; Kd [4, 8]: ≥ 70100 nM; Kd [5, 8]: 11300 nM
YVLGIFLRK						Kd [2, 9]: 9.88 nM; Kd [3, 9]: 1.22 nM
ATSSFREKSR	163	1.38	59.1	1.92	3.61	
KVIDLGCGR						Kd [5, 10]: 9210 nM
FLMAFANQIH						Kd [1, 11]: ≥ 23800 nM; Kd [2, 11]: ≥ 69700 nM; Kd [3, 11]: 11800 nM; Kd [4, 11]: ≥ 31800 nM; Kd [5, 11]: ≥ 70000 nM
FLELKRGIYK	945	1.19	4.84	89.1	120	
HAKYMVTDK	14300	5810	452	180	5060	
ASAFFGMSR						Kd [1, 12]: ≥ 41500 nM; Kd [2, 12]: 148 nM; Kd [3, 12]: 3170 nM; Kd [4, 12]: 197 nM; Kd [5, 12]: 21.9 nM
ITAKETLYR						Kd [1, 12]: 1080 nM; Kd [2, 12]: 18.3 nM; Kd [3, 12]: 131 nM; Kd [4, 12]: 15.5 nM; Kd [5, 12]: 193 nM
TSVSAKQLR	9110	2810	≥ 78000	11.2	2600	
KIPIYSHTER	1190	1140	1060	1530	25.8	
DSYTQVCDHR						Kd ([1]; source organism: Dengue virus 1 Nauru/West Pac/1974): 1820 nM
TYLALIATFK						Kd [1, 13]: 69.9 nM
MLIYSMWGK						Kd [1, 14]: 2040 nM; Kd [2, 14]: 2.63 nM; Kd [3, 14]: 10.6 nM; Kd [5, 14]: 459 nM
TLSERISSK	9910	2.91	6.16	48.3	2310	
YVMNIERQDY	≥ 23300	19000	≥ 70100	189	10200	
FIHMVRCCK	360	2010	267	6.32	421	
DLKWARFPK						Kd [1, 12]: 20 nM; Kd [2, 12]: 714 nM; Kd [3, 12]: 5640 nM; Kd [4, 12]: 51.5 nM; Kd [5, 12]: 391 nM
QMREIITGNK	≥ 47500	1710	15.8	12400	1950	
TTSLFLHLV						Kd [1, 15]: 2260 nM; Kd [3, 15]: 15300 nM

Sequence	Kd [1, 6] [nM]	Kd [2, 6] [nM]	Kd [3, 6] [nM]	Kd [4, 6] [nM]	Kd [5, 6] [nM]	further results
LAELLEMKY	≥ 77700	≥ 77900	14400	≥ 77700	≥ 77900	
KINSVKYYGR	2420	135	1870	5340	30.2	
QQQGQTVTKK						Kd [1, 12]: ≥ 70000 nM; Kd [2, 12]: 407 nM; Kd [3, 12]: 6440 nM; Kd [4, 12]: 8240 nM; Kd [5, 12]: 13700 nM
SSFIVPEFAK	9270	0.534	37.4	2.23	9400	
LSDIISAEK	12600	34.1	946	185	1800	
ATLKNVTEVK						Kd [2, 9]: 279 nM
TTIFAGHLK						Kd [2, 10]: 30.7 nM; Kd [4, 10]: 25.4 nM
NTFPNITLK						Kd [1, 14]: 164 nM; Kd [2, 14]: 9.39 nM; Kd [3, 14]: 53.1 nM; Kd [4, 14]: 0.779 nM; Kd [5, 14]: 595 nM
LACTDPSER	2310	19900	≥ 55100	173	572	
QVIAVEPGK						Kd [2, 10]: 781 nM
LLNKEMYLK						Kd [1, 12]: 6500 nM; Kd [2, 12]: 16.9 nM; Kd [3, 12]: 10.7 nM; Kd [4, 12]: 1100 nM; Kd [5, 12]: 155 nM
VFAQVKQMYK						Kd [1, 12]: 863 nM; Kd [2, 12]: 60.6 nM; Kd [3, 12]: 66.5 nM; Kd [4, 12]: 179 nM; Kd [5, 12]: 124 nM
RSDGYFLKIK	≥ 70000	1560	10400	≥ 70200	5500	
TYSDPLALR						Kd [1, 10]: 9.22 nM; Kd [5, 10]: ≥ 77900 nM
ISNMLSIINK						Kd [2, 13]: 113 nM; Kd [3, 13]: 142 nM
ALLGKKKNPR						Kd [5, 9]: 357 nM
ECYVQRFFLR						Kd [1, 15]: 44.9 nM; Kd [3, 15]: 17600 nM; Kd [4, 15]: 279 nM; Kd [5, 15]: 6 nM
AIFLTTLSR						Kd [2, 7]: 65.7 nM; Kd [3, 7]: 61.5 nM
MWTLMYFHR						Kd [1, 7]: 1.51 nM; Kd [5, 7]: 7.83 nM
PMFAVGLLFR						Kd [1, 10]: 91.1 nM
VVKDDPDHYK	≥ 70000			≥ 70200	≥ 40300	
AINVLRGFRK						Kd [2, 7]: 257 nM; Kd [3, 7]: 91.8 nM
WSLMYFHRR						Kd [1, 13]: 0.235 nM; Kd [5, 13]: 0.548 nM
